Measured values as given in patent US20230212319A1, “NOVEL ANTIGEN BINDING DOMAINS AND SYNTHETIC ANTIGEN RECEPTORS INCORPORATING THE SAME” (University of Southern California, priority 2020, published 2023).

B1: 21998 (protein)
chain: MDWIWRILFLVGAATGAHSQLQLQESGPGLVKPSETLSLTCTVSGGSVSSSSYYWGWIRQPPGKRLELIGSIYYGGSTYFNPSLKTRVTISVDTSKNQFSLKLSSVTAADTAVYYCAGGDTYGPVGQWPSDYRGQGTLVTVSSLEDLKNVFPPEVAVFEPSEAEISHTQKATLVCLATGFYPDHVELSWWVNGKEVHSGVCTDPQPLKEQPALNDSRYCLSSRLRVSATFWQNPRNHFRCQVQFYGLSENDEWTQDRAKPVTQIVSAEAWGRADCGFTSESYQQGVLSATILYEILLGKATLYAVLVSALVLMAMVKRKDSRGRAKRSGSGATNFSLLKQAGDVEENPGPTSMDWIWRILFLVGAATGAHSFEQVQLVESGGGLVQPGGSLRLSCAASGFTFTNHAMSWVRQAPGKGLELVSSISGNGRTTYYADSVKGRFTISRDISKNTLDLQMNSLRAEDTAVYYCAKDGGETLVDSRGQGTLVTVSSTRIQNPDPAVYQLRDSKSSDKSVCLFTDFDSQTNVSQSKDSDVYITDKCVLDMRSMDFKSNSAVAWSNKSDFACANAFNNSIIPEDTFFPSPESSCDVKLVEKSFETDTNLNFQNLSVIGFRILLLKVAGFNLLMTLRLWSSRAKRSGSGVKQTLNFDLLKLAGDVESNPGPSRGHMTEYKPTVRLATRDDVPRAVRTLAAAFADYPATRHTVDPDRHIERVTELQELFLTRVGLDIGKVWVADDGAAVAVWTTPESVEAGAVFAEIGPRMAELSGSRLAAQQQMEGLLAPHRPKEPAWFLATVGVSPDHQGKGLGSAVVLPGVEAAERAGVPAFLETSAPRNLPFYERLGFTVTADVEVPEGPRTWCMTRKPGA
B2: 22016 (protein)
chain: B1 chain
B3: 22014 (protein)
chain: MALPVTALLLPLALLLHAARPQVQLVESGGGLVQPGGSLRLSCAASGFTFTNHAMSWVRQAPGKGLELVSSISGNGRTTYYADSVKGRFTISRDISKNTLDLQMNSLRAEDTAVYYCAKDGGETLVDSRGQGTLVTVSSLEDLKNVFPPEVAVFEPSEAEISHTQKATLVCLATGFYPDHVELSWWVNGKEVHSGVCTDPQPLKEQPALNDSRYCLSSRLRVSATFWQNPRNHFRCQVQFYGLSENDEWTQDRAKPVTQIVSAEAWGRADCGFTSESYQQGVLSATILYEILLGKATLYAVLVSALVLMAMVKRKDSRGRAKRSGSGATNFSLLKQAGDVEENPGPTSMDWIWRILFLVGAATGAHSFEVQLLESGGGLVQPGGSLRLSCAASGFIFSIYAMSWVRQAPGKGLEWVSGISGSGVNTYYADSVKGRFIISRDNSRNTVYLQMNSLRADDTAVYHCANGKGWDGNTWYEDYRGQGTLVTVSSTRIQNPDPAVYQLRDSKSSDKSVCLFTDFDSQTNVSQSKDSDVYITDKCVLDMRSMDFKSNSAVAWSNKSDFACANAFNNSIIPEDTFFPSPESSCDVKLVEKSFETDTNLNFQNLSVIGFRILLLKVAGFNLLMTLRLWSSRAKRSGSGVKQTLNFDLLKLAGDVESNPGPSRGHMTEYKPTVRLATRDDVPRAVRTLAAAFADYPATRHTVDPDRHIERVTELQELFLTRVGLDIGKVWVADDGAAVAVWTTPESVEAGAVFAEIGPRMAELSGSRLAAQQQMEGLLAPHRPKEPAWFLATVGVSPDHQGKGLGSAVVLPGVEAAERAGVPAFLETSAPRNLPFYERLGFTVTADVEVPEGPRTWCMTRKPGA
B4: 22009 (protein)
chain: MALPVTALLLPLALLLHAARPLEGKPIPNPLLGLDSTGSGEDLKNVFPPEVAVFEPSKAEIAHTQKATLVCLATGFYPDHVELSWWVNGKEVHSGVCTDPQPLKEQPALNDSRYCLSSRLRVSATFWQNPRNHFRCQVQFYGLSENDEWTQDRAKPVTQIVSAEAWGRADCGITSASYHQGVLSATILYEILLGKATLYAVLVSALVLMAMVKRKDSRGRAKRSGSGATNFSLLKQAGDVEENPGPTSTMDWIWRILFLVGAATGAHSQLQLQESGPGLVKPSETLSLTCTVSGGSVSSSSYYWGWIRQPPGKRLELIGSIYYGGSTYFNPSLKSRVTISVDTSKNQFSLKLSSVTAADTAVYYCAGGDTYGPVGQWPSDYRGQGTLVTVSSGGGGSGGGSFEVQLLESGGGLVQPGGSLRLSCAASGFIFSIYAMSWVRQAPGKGLEWVSGISGSGVNTYYADSVKGRFIISRDNSRNTVYLQMNSLRADDTAVYHCANGKGWDGNTWYEDYRGQGTLVTVSSTREQKLISEEDGSGIQNPDPAVYQLRDSKSSDKSVCLFTDFDSQTNVSQSKDSDVYITDKCVLDMRSMDFKSNSAVAWSNKSDFACANAFNNSIIPEDTFFPSSDVPCDVKLVEKSFETDTNLNFQNLSVIGFRILLLKVAGFNLLMTLRLWSSRAKRSGSGVKQTLNFDLLKLAGDVESNPGPSRGHMTEYKPTVRLATRDDVPRAVRTLAAAFADYPATRHTVDPDRHIERVTELQELFLTRVGLDIGKVWVADDGAAVAVWTTPESVEAGAVFAEIGPRMAELSGSRLAAQQQMEGLLAPHRPKEPAWFLATVGVSPDHQGKGLGSAVVLPGVEAAERAGVPAFLETSAPRNLPFYERLGFTVTADVEVPEGPRTWCMTRKPGA

What follows are molecules tested on L363 cells (assay: JNG assay, co-culture with L363 cells). Settings: co-culture with L363.
Type: cell-based
Description: Cellular supernatant is collected and assayed for the induction of cytokines (e.g., IL2).
JNG (Jurkat cells expressing EGFP under an NFAT promoter) were infected with lentiviral vectors encoding different single chain and multi-chain SARs by spinfection in the presence of 8 µg/ml of Polybrene® (Sigma, Catalog no. H9268). The Jurkat-NFAT-GFP cells are engineered in such a way that the IL-2 promoter, which carries NFAT binding sites, is cloned upstream of the GFP gene. These cells have been used to study signaling via TCR and CAR. The different SARs were stably expressed in Jurkat NFAT-GFP cells by lentiviral mediated gene transfer, followed by selection with puromycin or blasticidin. No drug selection was used in case the construct lacked an antibiotic resistance gene. The SAR-expressing Jurkat-NFAT-GFP cells were cocultured with the target cells at E:T ratio of approximately 1:2 for approximately 4 hours to 18 hours. When the interaction between SIRs and their target antigen results in activation of the NFAT pathway, GFP expression is induced. […] GFP expression was monitored by FACS analysis. The Jurkat-NFAT-GFP (parental) cells were used as control. The structure of different constructs can be determined based on their names. […] The sequence of the other constructs in the table can be similarly determined from their names and by referring to the different Tables of this disclosure that provide the names and SEQ ID NO of the different modules. Alternatively, the composition and modular architecture of the different SAR constructs can be determined from their sequences by bioinformatics tools, including using nucleic acid and amino acids homology searches. A SAR is considered positive in the assay in case the SAR expressing Jurkat-NFAT-GFP cells show greater % GFP positive cells when cultured with the target cell line as compared to parental Jurkat-NFAT-GFP cells. […] In general, the number +/-, +, 2+, 3+, 4+, 5+ refer to approximately 5%, 10%, 20%, 30%, 40% and 50% GFP positive cells. The % of GFP induction in the above assay is dependent not only the relative strength of the SAR but also, among other factors, on the relative level of expression of the SAR in the JNG cells and the relative level of expression of the target antigen in the target cell line. To control for the difference in gene transduction efficiency of the different SAR constructs, the experiment was conducted with JNG cells transduced with SAR constructs co-expressing a drug resistance gene (e.g., puromycin or PAC) followed by drug selection to generate a stable population of SAR-expressing cells. It is to be noted that the drug resistance gene (e.g., PAC) in the SAR constructs is optional and in vivo studies were conducted with SAR constructs lacking the PAC gene.

Molecule	NFAT-GFP ASSAY: L363
B1	L363 (+) (refer to approximately 5%, 10%, 20%, 30%, 40% and 50% GFP positive cells)
B2	+/- (refer to approximately 5%, 10%, 20%, 30%, 40% and 50% GFP positive cells)
B3	+/- (refer to approximately 5%, 10%, 20%, 30%, 40% and 50% GFP positive cells)
B4	L363 (+/-) (refer to approximately 5%, 10%, 20%, 30%, 40% and 50% GFP positive cells)
